In patent publication US20100322937A1 (published 2010):

How the values were obtained:
[1] = target: T1, Y^246W EGFR (full-length human, FLAG tag) on BaF/3 cells (human, UniProt P00533 25-1210); test: calculated from Scatchard Kd and Bmax
T1 construct: whole, on cells
Description: (§1) Ligand binding to cells expressing the wt or mutant EGFR was determined at room temperature in the presence of the internalization inhibitor phenylarsine oxide (PAO) (29) by cold saturation experiments. […] All experimental points were prepared in triplicate. At the end of the incubation, the cells were pelleted and washed twice in ice-cold PBS before transferring to fresh tubes for counting in a Wallac WIZARD γ-counter (PerkinElmer, Boston, Mass.). Scatchard plots and estimates of ligand binding affinities and receptor numbers were obtained using the Radlig program (BioSoft, Cambridge, UK).
(§2) The data are representative of at least three separate experiments

[2] = target: T2, E^578C EGFR (full-length human, FLAG tag) on BaF/3 cells (human, UniProt P00533 25-1210); test: calculated from Scatchard Kd and Bmax
T2 construct: whole, on cells
Description: as §1, §2

[3] = target: T3, Y^246D EGFR (full-length human, FLAG tag) on BaF/3 cells (human, UniProt P00533 25-1210); test: calculated from Scatchard Kd and Bmax
T3 construct: whole, on cells
Description: as §1, §2

[4] = target: T4, wtEGFR: full-length human EGFR with FLAG tag after the leader, on BaF/3 cells (human, UniProt P00533 25-1210); test: calculated from Scatchard Kd and Bmax
T4 construct: whole, on cells; BaF/3 cells have no endogenous EGF receptors; also called wtEGFR-BaF/3
Description: as §1, §2

[5] = target: T5, D^563H EGFR (full-length human, FLAG tag) on BaF/3 cells (human, UniProt P00533 25-1210); test: calculated from Scatchard Kd and Bmax
T5 construct: whole, on cells
Description: as §1, §2

[6] = target: T6, V^583D EGFR (full-length human, FLAG tag) on BaF/3 cells (human, UniProt P00533 25-1210); test: calculated from Scatchard Kd and Bmax
T6 construct: whole, on cells
Description: as §1, §2

[7] = target: T7, Y^246F EGFR (full-length human, FLAG tag) on BaF/3 cells (human, UniProt P00533 25-1210); test: calculated from Scatchard Kd and Bmax
T7 construct: whole, on cells
Description: as §1, §2

[8] = target: T1, Y^246W EGFR (full-length human, FLAG …); test: Scatchard, 125I-EGF on BaF/3 cells
Description: as §1
(§3) Data were analyzed using the “Kell for Windows” RadLig program. ^{(a)}Number of receptors per cell were calculated from the Bₘₐₓ and the number of cells/tube in each ligand binding experiment.

[9] = target: T2, E^578C EGFR (full-length human, FLAG …); test: Scatchard, 125I-EGF on BaF/3 cells
Description: as §1, §3

[10] = target: T8, L^245C/E^578C EGFR (full-length human, FLAG tag) on BaF/3 cells (human, UniProt P00533 25-1210); test: Scatchard, 125I-EGF on BaF/3 cells
T8 construct: whole, on cells
Description: as §1, §3

[11] = target: T3, Y^246D EGFR (full-length human, FLAG …); test: Scatchard, 125I-EGF on BaF/3 cells
Description: as §1, §3

[12] = target: T4, wtEGFR: full-length human EGFR with …; test: Scatchard, 125I-EGF on BaF/3 cells
Description: as §1, §3

[13] = target: T5, D^563H EGFR (full-length human, FLAG …); test: Scatchard, 125I-EGF on BaF/3 cells
Description: as §1, §3

[14] = target: T6, V^583D EGFR (full-length human, FLAG …); test: Scatchard, 125I-EGF on BaF/3 cells
Description: as §1, §3

[15] = target: T7, Y^246F EGFR (full-length human, FLAG …); test: Scatchard, 125I-EGF on BaF/3 cells
Description: as §1, §3

[16] = target: T1, Y^246W EGFR (full-length human, FLAG …); test: Scatchard, 125I-EGF on BaF/3 cells, Kd2 (low-affinity site)
Description: as §1, §3

[17] = target: T2, E^578C EGFR (full-length human, FLAG …); test: as above
Description: as §1, §3

[18] = target: T8, L^245C/E^578C EGFR (full-length human, …); test: as above
Description: as §1, §3

[19] = target: T3, Y^246D EGFR (full-length human, FLAG …); test: as above
Description: as §1, §3

[20] = target: T4, wtEGFR: full-length human EGFR with …; test: as above
Description: as §1, §3

[21] = target: T5, D^563H EGFR (full-length human, FLAG …); test: as above
Description: as §1, §3

[22] = target: T6, V^583D EGFR (full-length human, FLAG …); test: as above
Description: as §1, §3

[23] = target: T7, Y^246F EGFR (full-length human, FLAG …); test: as above
Description: as §1, §3

[24] = target: T4, wtEGFR: full-length human EGFR with …; test: Scatchard, 125I-EGF on BaF/3 cells, Kd1 (high-affinity site)
Description: as §1, §3

[25] = target: T5, D^563H EGFR (full-length human, FLAG …); test: as above
Description: as §1, §3

[26] = target: T6, V^583D EGFR (full-length human, FLAG …); test: as above
Description: as §1, §3

[27] = target: T1, Y^246W EGFR (full-length human, FLAG …); test: cell-based or functional assay
[28] = target: T2, E^578C EGFR (full-length human, FLAG …); test: cell-based or functional assay
[29] = target: T3, Y^246D EGFR (full-length human, FLAG …); test: cell-based or functional assay
[30] = target: T4, wtEGFR: full-length human EGFR with …; test: cell-based or functional assay
[31] = target: T5, D^563H EGFR (full-length human, FLAG …); test: cell-based or functional assay
[32] = target: T6, V^583D EGFR (full-length human, FLAG …); test: cell-based or functional assay
[33] = target: T7, Y^246F EGFR (full-length human, FLAG …); test: cell-based or functional assay

B1: Murine EGF, purified from mouse submaxillary glands (ligand, UniProt P01132 977-1029, looked up)
chain: NSYPGCPSSYDGYCLNGGVCMHIESLDSYTCNCVIGYSGDRCQTRDLRWWELR
modifications: iodinated with 125I (Iodogen) as tracer in the Scatchard assays
notes: mature; also called ^125I-EGF
[EGF] at which 500R/cell are occupied [1]: 60 pM
[EGF] at which 500R/cell are occupied [2]: 80 pM
[EGF] at which 500R/cell are occupied [3]: 400 pM
[EGF] at which 500R/cell are occupied [4]: 16 pM
[EGF] at which 500R/cell are occupied [5]: 8 pM
[EGF] at which 500R/cell are occupied [6]: < 1 pM
[EGF] at which 500R/cell are occupied [7]: 30 pM
% of sites (Kd2) [8]: 100%
R/cell (from Bmax) [8]: 29000 receptors/cell
% of sites (Kd2) [9]: 100%
R/cell (from Bmax) [9]: 34500 receptors/cell
% of sites (Kd2) [10]: 100%
% of sites (Kd2) [11]: 100%
R/cell (from Bmax) [11]: 12000 receptors/cell
% of sites (Kd1) [12]: 2.6%
% of sites (Kd2) [12]: 97.5%
R/cell (from Bmax) [12]: 34000 receptors/cell
% of sites (Kd1) [13]: 4.4%
% of sites (Kd2) [13]: 96.4%
R/cell (from Bmax) [13]: 23000 receptors/cell
% of sites (Kd1) [14]: 12.6%
% of sites (Kd2) [14]: 90.8%
R/cell (from Bmax) [14]: 38000 receptors/cell
% of sites (Kd2) [15]: 100%
R/cell (from Bmax) [15]: 30000 receptors/cell
Kd [16]: 2.5 nM
Kd [17]: 1.7 nM
Kd [18]: 2.1 nM
Kd [19]: 2.1 nM
Kd [20]: 1.6 nM
Kd [21]: 1.7 nM
Kd [22]: 1.3 nM
Kd [23]: 2.8 nM
Kd [24]: 0.029 nM
Kd [25]: 0.0176 nM
Kd [26]: 0.0026 nM
% maximal incorporation ([^3H]Thymidine) [27]: 0%
% maximal incorporation ([^3H]Thymidine) [28]: 100%
EC50 for EGF ([^3H]Thymidine incorporation) [28]: 0.1 nM
% maximal incorporation ([^3H]Thymidine) [29]: 0%
% maximal incorporation ([^3H]Thymidine) [30]: 100%
EC50 for EGF ([^3H]Thymidine incorporation) [30]: 0.012 nM
% maximal incorporation ([^3H]Thymidine) [31]: 90%
EC50 for EGF ([^3H]Thymidine incorporation) [31]: 0.005 nM
% maximal incorporation ([^3H]Thymidine) [32]: 100%
EC50 for EGF ([^3H]Thymidine incorporation) [32]: 0.006 nM
% maximal incorporation ([^3H]Thymidine) [33]: 16%
EC50 for EGF ([^3H]Thymidine incorporation) [33]: 0.03 nM
